# From patent publication US20150376271 (published 2015)
# Several values for one entry are separate records, joined by “and”; a condition that tells them apart may be missing. Identical values can stand only once. Like-named read-outs stand apart in the source and are kept apart here.
# T1: PDGF-BB (human, UniProt P01127)
# T1 chain: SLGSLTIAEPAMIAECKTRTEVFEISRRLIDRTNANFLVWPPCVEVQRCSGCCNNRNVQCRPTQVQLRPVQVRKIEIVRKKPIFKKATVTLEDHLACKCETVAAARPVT
# T2: VEGF121 (human, UniProt P15692)
# T2 chain: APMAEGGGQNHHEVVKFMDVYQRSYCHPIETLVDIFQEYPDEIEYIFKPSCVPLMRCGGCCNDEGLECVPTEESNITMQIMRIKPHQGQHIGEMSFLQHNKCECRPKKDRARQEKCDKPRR
# T3: VEGFA-165 (human, UniProt P15692)
# T3 chain: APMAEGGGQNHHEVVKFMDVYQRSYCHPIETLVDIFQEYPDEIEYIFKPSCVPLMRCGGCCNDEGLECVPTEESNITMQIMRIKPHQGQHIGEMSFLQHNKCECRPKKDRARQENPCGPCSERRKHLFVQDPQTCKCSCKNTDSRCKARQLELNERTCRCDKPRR
# Columns and labels:
# PDGF-BB = molecular target: T1, PDGF-BB; assay: SPR, 25C
# VEGF121 [1] = molecular target: T2, VEGF121; assay: SPR
# VEGF121 [2] = molecular target: T2, VEGF121; assay: SPR
# VEGFA-165 [3] = molecular target: T3, VEGFA-165; assay: competition
# VEGFA-165 [4] = molecular target: T3, VEGFA-165; assay: SPR
# VEGFA-165 [5] = molecular target: T3, VEGFA-165; assay: competition
Binder,Kd (VEGF121 [1]) [nM],Kd (VEGF121 [2]),IC50 (VEGFA-165 [3]) [nM],Kd (VEGFA-165 [4]) [nM],also measured
"OG1321 (antibody, TAF443 protein, unconjugated) chain 1: LVVTPPGPELVLNVSSTFVLTCSGSAPVVWERMSQEPPQEMAKAQDGTFSSVLTLTNLTGLDTGEYFCTHNDSRGLETDERKRLYIFVPDPTVGFLPNDAEELFIFLTEITEITIPCRVTDPQLVVTLHEKKGDVALPVPYDHQRGFSGIFEDRSYICKTTIGDREVDSDAYYVYRLQVSSINVSVNAVQTVVRQGENITLMCIVIGNEVVNFEWTYPRKESGRLVEPVTDFLLDMPYHIRSILHIPSAELEDSGTYTCNVTESVNDHQDEKAINITVVESGGGGGSGGGGSEVQLVESGGGLVQPGGSLRLSCAASGYDFTHYGMNWVRQAPGKGLEWVGWINTYTGEPTYAADFKRRFTFSLDTSKSTAYLQMNSLRAEDTAVYYCAKYPYYYGTSHWYFDVWGQGTLVTVSSASTKGPSVFPLAPSSKSTSGGTAALGCLVKDYFPEPVTVSWNSGALTSGVHTFPAVLQSSGLYSLSSVVTVPSSSLGTQTYICNVNHKPSNTKVDKKVEPKSCDKTHTCPPCPAPEAAGAPSVFLFPPKPKDTLMISRTPEVTCVVVDVSHEDPEVKFNWYVDGVEVHNAKTKPREEQYNSTYRVVSVLTVLHQDWLNGKEYKCKVSNKALPAPIEKTISKAKGQPREPQVYTLPPSREEMTKNQVSLTCLVKGFYPSDIAVEWESNGQPENNYKTTPPVLDSDGSFFLYSKLTVDKSRWQQGNVFSCSVMHEALHNHYTQKSLSCSPGK chain 2: not shown",–,–,–,–,Kd (PDGF-BB): 0.014 nM
OG1321 (antibody) chain 1: LVVTPPGPELVLNVSSTFVLTCSGSAPVVWERMSQEPPQEMAKAQDGTFSSVLTLTNLTGLDTGEYFCTHNDSRGLETDERKRLYIFVPDPTVGFLPNDAEELFIFLTEITEITIPCRVTDPQLVVTLHEKKGDVALPVPYDHQRGFSGIFEDRSYICKTTIGDREVDSDAYYVYRLQVSSINVSVNAVQTVVRQGENITLMCIVIGNEVVNFEWTYPRKESGRLVEPVTDFLLDMPYHIRSILHIPSAELEDSGTYTCNVTESVNDHQDEKAINITVVESGGGGGSGGGGSEVQLVESGGGLVQPGGSLRLSCAASGYDFTHYGMNWVRQAPGKGLEWVGWINTYTGEPTYAADFKRRFTFSLDTSKSTAYLQMNSLRAEDTAVYYCAKYPYYYGTSHWYFDVWGQGTLVTVSSASTKGPSVFPLAPSSKSTSGGTAALGCLVKDYFPEPVTVSWNSGALTSGVHTFPAVLQSSGLYSLSSVVTVPSSSLGTQTYICNVNHKPSNTKVDKKVEPKSCDKTHTCPPCPAPEAAGAPSVFLFPPKPKDTLMISRTPEVTCVVVDVSHEDPEVKFNWYVDGVEVHNAKTKPREEQYNSTYRVVSVLTVLHQDWLNGKEYKCKVSNKALPAPIEKTISKAKGQPREPQVYTLPPSREEMTKNQVSLTCLVKGFYPSDIAVEWESNGQPENNYKTTPPVLDSDGSFFLYSKLTVDKSRWQQGNVFSCSVMHEALHNHYTQKSLSCSPGK chain 2: not shown,–,–,12.5,0.0098,–

# Now from value to binder, other results behind:
Kd (VEGF121 [1]) [nM],Kd (VEGF121 [2]),IC50 (VEGFA-165 [3]) [nM],Kd (VEGFA-165 [4]) [nM],Binder,also measured
0.231,0.28 nM and 0.182 nM,–,–,TAF347 (antibody) chain 1: LVVTPPGPELVLNVSSTFVLTCSGSAPVVWERMSQEPPQEMAKAQDGTFSSVLTLTNLTGLDTGEYFCTHNDSRGLETDERKRLYIFVPDPTVGFLPNDAEELFIFLTEITEITIPCRVTDPQLVVTLHEKKGDVALPVPYDHQRGFSGIFEDRSYICKTTIGDREVDSDAYYVYRLQVSSINVSVNAVQTVVRQGENITLMCIVIGNEVVNFEWTYPRKESGRLVEPVTDFLLDMPYHIRSILHIPSAELEDSGTYTCNVTESVNDHQDEKAINITVVESGGGGGSGGGGSEVQLVESGGGLVQPGGSLRLSCAASGYDFTHYGMNWVRQAPGKGLEWVGWINTYTGEPTYAADFKRRFTFSLDTSKSTAYLQMNSLRAEDTAVYYCAKYPYYYGTSHWYFDVWGQGTLVTVSSASTKGPSVFPLAPSSKSTSGGTAALGCLVKDYFPEPVTVSWNSGALTSGVHTFPAVLQSSGLYSLSSVVTVPSSSLGTQTYICNVNHKPSNTKVDKKVEPKSCDKTHTCPPCPAPEAAGAPSVFLFPPKPKDTLMISRTPEVTCVVVDVSHEDPEVKFNWYVDGVEVHNAKTKPREEQYNSTYRVVSVLTVLHQDWLNGKEYKCKVSNKALPAPIEKTISKAKGQPREPCVYTLPPSREEMTKNQVSLTCLVKGFYPSDIAVEWESNGQPENNYKTTPPVLDSDGSFFLYSKLTVDKSRWQQGNVFSCSVMHEALHNHYTQKSLSLSPGK chain 2: not shown,–
0.225,0.23 nM and 0.219 nM,–,–,TAF443 (antibody) chain 1: LVVTPPGPELVLNVSSTFVLTCSGSAPVVWERMSQEPPQEMAKAQDGTFSSVLTLTNLTGLDTGEYFCTHNDSRGLETDERKRLYIFVPDPTVGFLPNDAEELFIFLTEITEITIPCRVTDPQLVVTLHEKKGDVALPVPYDHQRGFSGIFEDRSYICKTTIGDREVDSDAYYVYRLQVSSINVSVNAVQTVVRQGENITLMCIVIGNEVVNFEWTYPRKESGRLVEPVTDFLLDMPYHIRSILHIPSAELEDSGTYTCNVTESVNDHQDEKAINITVVESGGGGGSGGGGSEVQLVESGGGLVQPGGSLRLSCAASGYDFTHYGMNWVRQAPGKGLEWVGWINTYTGEPTYAADFKRRFTFSLDTSKSTAYLQMNSLRAEDTAVYYCAKYPYYYGTSHWYFDVWGQGTLVTVSSASTKGPSVFPLAPSSKSTSGGTAALGCLVKDYFPEPVTVSWNSGALTSGVHTFPAVLQSSGLYSLSSVVTVPSSSLGTQTYICNVNHKPSNTKVDKKVEPKSCDKTHTCPPCPAPEAAGAPSVFLFPPKPKDTLMISRTPEVTCVVVDVSHEDPEVKFNWYVDGVEVHNAKTKPREEQYNSTYRVVSVLTVLHQDWLNGKEYKCKVSNKALPAPIEKTISKAKGQPREPQVYTLPPSREEMTKNQVSLTCLVKGFYPSDIAVEWESNGQPENNYKTTPPVLDSDGSFFLYSKLTVDKSRWQQGNVFSCSVMHEALHNHYTQKSLSCSPGK chain 2: not shown,–
–,–,8.5,0.0051,OG1448 (antibody) chain 1: LVVTPPGPELVLNVSSTFVLTCSGSAPVVWERMSQEPPQEMAKAQDGTFSSVLTLTNLTGLDTGEYFCTHNDSRGLETDERKRLYIFVPDPTVGFLPNDAEELFIFLTEITEITIPCRVTDPQLVVTLHEKKGDVALPVPYDHQRGFSGIFEDRSYICKTTIGDREVDSDAYYVYRLQVSSINVSVNAVQTVVRQGENITLMCIVIGNEVVNFEWTYPRKESGRLVEPVTDFLLDMPYHIRSILHIPSAELEDSGTYTCNVTESVNDHQDEKAINITVVESGGGGGSGGGGSEVQLVESGGGLVQPGGSLRLSCAASGYDFTHYGMNWVRQAPGKGLEWVGWINTYTGEPTYAADFKRRFTFSLDTSKSTAYLQMNSLRAEDTAVYYCAKYPYYYGTSHWYFDVWGQGTLVTVSSASTKGPSVFPLAPSSKSTSGGTAALGCLVKDYFPEPVTVSWNSGALTSGVHTFPAVLQSSGLYSLSSVVTVPSSSLGTQTYICNVNHKPSNTKVDKKVEPKSCDKTHTCPPCPAPEAAGAPSVFLFPPKPKDTLMISRTPEVTCVVVDVSHEDPEVKFNWYVDGVEVHNAKTKPREEQYNSTYRVVSVLTVLHQDWLNGKEYKCKVSNKALPAPIEKTISKAKGQPREPQVYTLPPSREEMTKNQVSLTCLVKGFYPSDIAVEWESNGQPENNYKTTPPVLDSDGSFFLYSKLTVDKSRWQQGNVFSCSVMHEALHNHYTQKSLSCSPGK chain 2: not shown,IC50 (VEGFA-165 [5]): 10.1 nM
